# Experimental data reported in article doi:10.64898/2025.12.26.696629.
# Like-named read-outs stand apart in the source and are kept apart here.
# Columns and labels:
# [1] = target: Mtb SufR_(6-229)-His6 (Mycobacterium tuberculosis H37Rv); test: cryo-EM structure
# [2] = target: T1, SufR-M1 (RRH motif mutant) (Mycobacterium tuberculosis H37Rv, UniProt O53151 30-253, R74A;R75A;H76A); test: EMSA
# T1 sequence: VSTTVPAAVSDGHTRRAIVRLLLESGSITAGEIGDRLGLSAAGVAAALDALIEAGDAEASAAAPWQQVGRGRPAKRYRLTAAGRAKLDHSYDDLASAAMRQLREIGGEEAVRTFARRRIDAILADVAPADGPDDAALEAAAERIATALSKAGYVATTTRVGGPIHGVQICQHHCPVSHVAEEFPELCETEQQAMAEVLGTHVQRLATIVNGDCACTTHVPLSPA
# [3] = target: T2, SufR-R75M (Mycobacterium tuberculosis H37Rv, UniProt O53151 30-253, R99M); test: EMSA
# T2 sequence: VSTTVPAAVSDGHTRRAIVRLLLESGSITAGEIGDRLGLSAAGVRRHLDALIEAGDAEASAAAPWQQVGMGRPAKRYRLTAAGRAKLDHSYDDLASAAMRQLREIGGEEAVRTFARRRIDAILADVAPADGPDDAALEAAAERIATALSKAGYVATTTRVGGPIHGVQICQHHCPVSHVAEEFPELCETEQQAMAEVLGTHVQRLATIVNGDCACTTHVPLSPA
# [4] = target: T3, SufR-M2 (AT-hook mutant) (Mycobacterium tuberculosis H37Rv, UniProt O53151 30-253, R99A;R101A); test: EMSA
# T3 sequence: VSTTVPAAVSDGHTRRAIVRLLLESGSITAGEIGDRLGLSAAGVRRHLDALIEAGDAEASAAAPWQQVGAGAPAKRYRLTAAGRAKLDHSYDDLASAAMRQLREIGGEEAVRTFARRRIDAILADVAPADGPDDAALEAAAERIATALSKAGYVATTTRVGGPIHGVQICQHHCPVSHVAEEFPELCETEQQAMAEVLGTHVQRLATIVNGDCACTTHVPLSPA
# [5] = target: T4, SufR-R51A (Mycobacterium tuberculosis H37Rv, UniProt O53151 30-253, R75A); test: EMSA
# T4 sequence: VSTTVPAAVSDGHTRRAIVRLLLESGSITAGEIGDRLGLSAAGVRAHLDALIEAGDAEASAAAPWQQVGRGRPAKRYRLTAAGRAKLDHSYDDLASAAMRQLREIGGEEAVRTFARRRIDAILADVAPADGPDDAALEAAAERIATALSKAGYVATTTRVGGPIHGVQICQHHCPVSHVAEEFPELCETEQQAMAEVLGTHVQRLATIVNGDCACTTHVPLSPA
# [6] = target: T5, SufR6-229-His6 (holo, [4Fe-4S]) (Mycobacterium tuberculosis H37Rv, UniProt O53151 30-253); test: EMSA
# T5 sequence: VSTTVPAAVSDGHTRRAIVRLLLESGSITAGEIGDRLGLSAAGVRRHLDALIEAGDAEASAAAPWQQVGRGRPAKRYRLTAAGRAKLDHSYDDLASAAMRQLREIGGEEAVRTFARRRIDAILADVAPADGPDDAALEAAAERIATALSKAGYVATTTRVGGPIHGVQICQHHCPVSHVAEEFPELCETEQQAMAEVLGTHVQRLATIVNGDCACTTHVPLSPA
# [7] = target: T5, SufR6-229-His6 (holo, [4Fe-4S]); test: EMSA; remark: listed apart in the source
molecule,measurement,setting,value
Mtb SufR_(6-229)-His6 (domain or fragment),stoichiometry N,[1],2
PsufR 50-bp (dsDNA) DNA 1: CCGATCAACGGAATTTTGTCACACTGATGTTGTGAAAATCCCGGCGGTCT DNA 2: AGACCGCCGGGATTTTCACAACATCAGTGTGACAAAATTCCGTTGATCGG,binding result,[2],no binding
same,binding result,[3],binds
same,binding result,[4],no binding
same,binding result,[5],no binding
PsufR-DM (dsDNA) DNA 1: CCGATCAACGGAACTGTGTCACACTGATGTTGTGACAGTCCCGGCGGTCT DNA 2: AGACCGCCGGGACTGTCACAACATCAGTGTGACACAGTTCCGTTGATCGG,binding result,[6],no binding
PsufR-PM (dsDNA) DNA 1: CCGATCAACGGAATTTTGTCGAAGTGATGTCACTAAAATCCCGGCGGTCT DNA 2: AGACCGCCGGGATTTTAGTGACATCACTTCGACAAAATTCCGTTGATCGG,binding result,[7],binds
